Assay results: paper PMC8427654

Biological target: T1, split luciferase wild-type (WT) Apaf-1 (apoptotic protease activating factor-1), O14727
T1 chain: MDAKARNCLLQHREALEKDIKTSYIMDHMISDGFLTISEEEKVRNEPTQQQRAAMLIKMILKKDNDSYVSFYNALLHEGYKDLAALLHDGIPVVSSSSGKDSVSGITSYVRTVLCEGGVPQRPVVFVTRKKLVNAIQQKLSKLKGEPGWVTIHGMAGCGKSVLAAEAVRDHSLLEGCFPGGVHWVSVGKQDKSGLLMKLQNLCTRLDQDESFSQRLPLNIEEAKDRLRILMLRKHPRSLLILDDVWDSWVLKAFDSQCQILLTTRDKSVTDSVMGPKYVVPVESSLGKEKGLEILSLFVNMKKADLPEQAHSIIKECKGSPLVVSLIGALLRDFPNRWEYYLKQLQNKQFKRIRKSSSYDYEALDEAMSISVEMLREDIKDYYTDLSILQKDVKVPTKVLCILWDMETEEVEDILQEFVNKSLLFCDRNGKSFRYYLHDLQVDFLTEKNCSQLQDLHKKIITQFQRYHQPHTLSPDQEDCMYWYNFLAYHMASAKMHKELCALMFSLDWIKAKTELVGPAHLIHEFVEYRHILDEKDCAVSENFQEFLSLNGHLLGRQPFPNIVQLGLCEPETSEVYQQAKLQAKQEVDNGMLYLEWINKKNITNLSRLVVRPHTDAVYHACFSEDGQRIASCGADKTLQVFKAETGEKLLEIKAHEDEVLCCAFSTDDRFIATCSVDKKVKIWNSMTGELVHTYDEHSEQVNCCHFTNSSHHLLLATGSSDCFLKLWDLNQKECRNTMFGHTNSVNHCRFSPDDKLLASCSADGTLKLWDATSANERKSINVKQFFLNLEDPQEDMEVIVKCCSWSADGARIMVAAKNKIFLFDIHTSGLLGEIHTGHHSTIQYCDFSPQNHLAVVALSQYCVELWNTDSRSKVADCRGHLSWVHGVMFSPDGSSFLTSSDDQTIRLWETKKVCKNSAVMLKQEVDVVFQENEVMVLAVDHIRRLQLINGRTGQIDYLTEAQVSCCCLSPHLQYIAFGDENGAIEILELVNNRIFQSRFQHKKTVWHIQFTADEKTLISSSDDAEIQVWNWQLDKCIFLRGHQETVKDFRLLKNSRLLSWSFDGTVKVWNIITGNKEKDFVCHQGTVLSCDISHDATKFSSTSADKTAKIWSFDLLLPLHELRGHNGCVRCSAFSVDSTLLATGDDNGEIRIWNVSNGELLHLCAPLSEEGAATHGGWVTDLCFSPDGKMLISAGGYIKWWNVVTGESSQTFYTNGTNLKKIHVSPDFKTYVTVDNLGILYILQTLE
Assay: split reporter
Conditions: remark: other sources report otherwise

B1: split luciferase wild-type (WT) Apaf-1 (apoptotic protease activating factor-1), O14727 1-1248 (natural protein)
chain: MDAKARNCLLQHREALEKDIKTSYIMDHMISDGFLTISEEEKVRNEPTQQQRAAMLIKMILKKDNDSYVSFYNALLHEGYKDLAALLHDGIPVVSSSSGKDSVSGITSYVRTVLCEGGVPQRPVVFVTRKKLVNAIQQKLSKLKGEPGWVTIHGMAGCGKSVLAAEAVRDHSLLEGCFPGGVHWVSVGKQDKSGLLMKLQNLCTRLDQDESFSQRLPLNIEEAKDRLRILMLRKHPRSLLILDDVWDSWVLKAFDSQCQILLTTRDKSVTDSVMGPKYVVPVESSLGKEKGLEILSLFVNMKKADLPEQAHSIIKECKGSPLVVSLIGALLRDFPNRWEYYLKQLQNKQFKRIRKSSSYDYEALDEAMSISVEMLREDIKDYYTDLSILQKDVKVPTKVLCILWDMETEEVEDILQEFVNKSLLFCDRNGKSFRYYLHDLQVDFLTEKNCSQLQDLHKKIITQFQRYHQPHTLSPDQEDCMYWYNFLAYHMASAKMHKELCALMFSLDWIKAKTELVGPAHLIHEFVEYRHILDEKDCAVSENFQEFLSLNGHLLGRQPFPNIVQLGLCEPETSEVYQQAKLQAKQEVDNGMLYLEWINKKNITNLSRLVVRPHTDAVYHACFSEDGQRIASCGADKTLQVFKAETGEKLLEIKAHEDEVLCCAFSTDDRFIATCSVDKKVKIWNSMTGELVHTYDEHSEQVNCCHFTNSSHHLLLATGSSDCFLKLWDLNQKECRNTMFGHTNSVNHCRFSPDDKLLASCSADGTLKLWDATSANERKSINVKQFFLNLEDPQEDMEVIVKCCSWSADGARIMVAAKNKIFLFDIHTSGLLGEIHTGHHSTIQYCDFSPQNHLAVVALSQYCVELWNTDSRSKVADCRGHLSWVHGVMFSPDGSSFLTSSDDQTIRLWETKKVCKNSAVMLKQEVDVVFQENEVMVLAVDHIRRLQLINGRTGQIDYLTEAQVSCCCLSPHLQYIAFGDENGAIEILELVNNRIFQSRFQHKKTVWHIQFTADEKTLISSSDDAEIQVWNWQLDKCIFLRGHQETVKDFRLLKNSRLLSWSFDGTVKVWNIITGNKEKDFVCHQGTVLSCDISHDATKFSSTSADKTAKIWSFDLLLPLHELRGHNGCVRCSAFSVDSTLLATGDDNGEIRIWNVSNGELLHLCAPLSEEGAATHGGWVTDLCFSPDGKMLISAGGYIKWWNVVTGESSQTFYTNGTNLKKIHVSPDFKTYVTVDNLGILYILQTLE
In the case of B1, the luciferase activity, fold over pcDNA3 transfection control is reported as 32 fold.
